US20210095028A1 (NANJING LEGEND BIOTECH, published 2021)

T1: human TIGIT over-expressed on cells (human, UniProt Q495A1 22-244)
T1 sequence: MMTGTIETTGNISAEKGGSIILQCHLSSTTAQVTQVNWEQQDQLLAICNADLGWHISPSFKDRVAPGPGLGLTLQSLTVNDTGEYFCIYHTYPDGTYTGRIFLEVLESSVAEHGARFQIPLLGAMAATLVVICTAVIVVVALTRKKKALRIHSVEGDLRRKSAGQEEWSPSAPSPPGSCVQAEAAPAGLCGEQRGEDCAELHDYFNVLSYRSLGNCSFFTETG

T2: Human TIGIT protein with HIS tag (human, UniProt Q495A1 22-141)
T2 construct: A soluble analyte is probably only the extracellular part; also called human TIGIT recombinant protein; not shown: HIS tag
T2 sequence: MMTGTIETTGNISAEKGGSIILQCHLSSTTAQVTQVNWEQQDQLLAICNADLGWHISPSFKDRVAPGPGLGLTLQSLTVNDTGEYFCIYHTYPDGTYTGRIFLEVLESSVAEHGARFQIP


Experiments:
[1] = target: T1, human TIGIT over-expressed on cells; experiment: cell-based or functional assay
[2] = target: T3, cynomolgus TIGIT over-expressed on CHO-K1 cells (cynomolgus, UniProt A0A7N9I9V4 89-312); experiment: FACS, CHO-K1 cells over-expressing cynomolgus TIGIT
T3 construct: whole, on cells; also called CHO-K1/cynomolgus TIGIT cells
T3 sequence (A0A7N9I9V4 entry or part of it): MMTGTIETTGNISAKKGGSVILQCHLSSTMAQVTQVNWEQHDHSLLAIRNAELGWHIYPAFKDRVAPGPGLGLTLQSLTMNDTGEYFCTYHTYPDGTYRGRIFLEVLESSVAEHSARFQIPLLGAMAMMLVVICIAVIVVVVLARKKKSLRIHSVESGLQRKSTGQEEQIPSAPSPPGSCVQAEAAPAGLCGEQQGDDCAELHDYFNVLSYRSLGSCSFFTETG
Experimental: (§1) The mixture was equilibrated for 30 minutes at room temperature and washed three times with FACS buffer (PBS containing 1% BSA). iFluor labeled goat anti-mouse IgG as the secondary antibody was added and incubated at room temperature for 45 min. Finally, the cells were washed 3 time with PBS, and the signal was read by FACS BD Calibur. Data was analyzed with PRISM™ (GraphPad Software, San Diego, Calif.) using non-linear regression and EC₅₀ values were calculated.

[3] = target: T1, human TIGIT over-expressed on cells; experiment: competition FACS, CHO cells expressing human TIGIT; competitor PVR recombinant protein
Experimental: The mixture was equilibrated for 30 minutes at room temperature, and washed three times with FACS buffer (PBS containing 1% BSA). PE/Cy5 Streptavidin secondary antibody was then added to the mixtures and incubated for 15 minutes at room temperature. Subsequently, the cells were washed with FACS buffer and analyzed by flow cytometry. Data was analyzed with PRISM™ (GraphPad Software, San Diego, Calif.) using non-linear regression, and IC₅₀ values were calculated (FIGS. 4A-4B and Table 6).

[4] = target: T1, human TIGIT over-expressed on cells; experiment: FACS, CHO-K1 cells over-expressing human TIGIT
Experimental: as §1

[5] = target: T1, human TIGIT over-expressed on cells; experiment: cell-based or functional assay; remark: listed apart in the source
[6] = target: T2, Human TIGIT protein with HIS tag; experiment: SPR Biacore T200; antibody Fc-captured, TIGIT-His analyte
Experimental: Binding kinetics of mouse anti-human TIGIT monoclonal antibodies to human TIGIT were determined using a Surface Plasmon Resonance (SPR) biosensor, BIACORE® T200 (GE Healthcare; Little Chalfont, United Kingdom). […] Each mouse anti-human TIGIT monoclonal antibody was immobilized on the sensor chip through the Fc capture method. Human TIGIT protein with HIS tag was used as the analyte. The dissociation (kd) and association (kₐ) rate constants were obtained using the BIACORE® T200 evaluation software. The apparent equilibrium dissociation constants (KD) were calculated from the ratio of kd over kₐ.

IL-2 secretion in T cell activation, Bottom (best-fit) [1]	IL-2 secretion in T cell activation, EC50 [1] [nM]	IL-2 secretion in T cell activation, Top (best-fit) [1]	Bottom (best-fit) [2]	EC50 [2] [nM]	Top (best-fit) [2]	Bottom (best-fit) [3]	IC50 [3] [nM]	Top (best-fit) [3]	Bottom (best-fit) [4]	EC50 [4] [nM]	Top (best-fit) [4]	luciferase signal in T cell activation, Bottom (best-fit) [5]	luciferase signal in T cell activation, EC50 [5] [nM]	luciferase signal in T cell activation, Top (best-fit) [5]	Kd [6] [nM]	koff [6] [s⁻¹]	kon [6] [M⁻¹ s⁻¹]	Binder
108	3.31	189	7	11.1	80.6	8.9	2.4	56.9	15.5	0.73	96.9	6	6.42	147	2.3	0.00083	370000	104G12E12G2 (antibody, V domains shown, Mouse monoclonal antibody; also called mouse anti-human TIGIT monoclonal antibody 104G12E12G2) VH: EVQLQQSGPELVKPGASVKISCKASGYSFTGSYIHWVKQNHVKTLEWIGRINPHNGPTSYNQNFKGKASLTVDLSSSTAYMEVHSLTSEDSAVYYCVRYDGYYGGALDYWGQGTSVTVSS VL: DIQMTQSPSSLSASLGERVSLTCRASQEISGYLSWLQQKPDGTIKRLIYAASTLDSGVPKRFSGSRSGSDYSLTISSLESEDFADYYCLQYASYPYTFGGGTKLEIK
			7.6	18.5	53.8	10.4	0.7	73.8	13.8	0.37	89.9				3	0.0062	2.1e+06	139E2C2D2 (antibody, V domains shown, Mouse monoclonal antibody; also called mouse anti-human TIGIT monoclonal antibody 139E2C2D2) VH: EVQLVESGGDLVKPGGSLKLSCAASGFTFSSYGMSWVRQTPDKRLEWVAIISSGGNYTYYPDSVKGRFTISRDNAKNTLYLQMSSLKSEDTAMYYCARQIHYFFAMDYWGQGTSVTVSS VL: DIQMTQSPASLSVSVGETVTITCRASENIYSNLAWYQQKQGKSPQLLVYAATNLADGAPSRFSGSRSGTQYSLKINSLQSEDFGSYYCQHFWGTAYTFGGGTKLEIK
96.2	1.02	197	7.6	10.2	120	11.8	0.6	68.8	14.2	0.36	92.7	5.4	4.38	153	0.72	0.00093	1.3e+06	121C2F10B5 (antibody, V domains shown, Mouse monoclonal antibody; also called mouse anti-human TIGIT monoclonal antibody 121C2F10B5) VH: EVQLVESGGDLVKPGGSLKLSCAASGFTFSTYGMSWVRQTPDKRLEWVATISSGGSYTYYPDSVKGRFTISRDNAKNTLYLQMSSLKSEDTAMYYCARQVHYFYAMDYWGQGTSVTVSS VL: DIQMTQSPASLSVSVGETVTITCRASENIYSNLAWYQQKQGKSPQVLVYAATNLADGVPSRFSGSRSGTQYSLKINSLQSEDFGSYYCQHFWDNAYTFGGGTKLEIK
			7.5	8.38	66.2	8.8	1.1	69.7	16.2	0.3	98.7	4.5	8.54	99	6.7	0.008	1.2e+06	128E3G7F5 (antibody, V domains shown, Mouse monoclonal antibody; also called mouse anti-human TIGIT monoclonal antibody 128E3G7F5) VH: EVLLQQSGPELVKTGASVKISCKASGYSFTAYYMHWVKQSHGKSLEWIGYISCYNGATTYNQKFKGKATFTVDTSSTTAYMQFNSLTSEDSAVYYCARRVYYGYDEALVYWGQGTSVTVSS VL: DIVMTQSPSSLSVSAGEKVTMTCKSSQSLLNSGNQKNYLAWYQQKPGQPPKLLIYGASTRGSGVPDRFTGSGSGTDFTLTISSVQAEDLAVYYCQNDHSYPYTFGGGTKLEIK
107	0.98	191	16.9	1.16	410	12.9	1.2	66.5	14	0.81	107	11.6	3.46	117	0.51	0.00033	650000	100C4E7D11 (antibody, V domains shown, Mouse monoclonal antibody; also called mouse anti-human TIGIT monoclonal antibody 100C4E7D11) VH: EVMLVESGGGLVKPGGSLKLSCAASGFTFSFYTMSWVRQTPEKRLEWVATISSGGGSTYYSDSVKGRFTISRDNAKNNLYLQMTSLRSEDTALYYCSRSLPVDYWGQGTTLTVSS VL: QIVLTQSPAIMSASLGERVTMTCTASSSVSSTYLHWYQQKPGSSPKLWIYSTSNLASGVPARFSGSGSGTSYSLTISSMEAEDAATYYCHLYHHSPYTFGGGTKLEIK
104	0.83	171	16.1	1	326	12.9	0.7	70.2	9.57	0.68	115	9.6	4.4	145	0.7	0.00043	610000	83G6H11C12 (antibody, V domains shown, Mouse monoclonal antibody; also called mouse anti-human TIGIT monoclonal antibody 83G6H11C12) VH: EVMLVESGGGLVKPGGSLKLSCAASGFTFSFYTMSWVRQTPEKRLEWVATISSGGGSTYYSDSVKGRFTISRDNAKNNLYLQMTSLRSEDTALYYCSRSLPVDYWGQGTTLTVSS VL: QIVLTQSPAIMSASLGERVTMTCTASSSVSSSYLHWYQQKPGSSPKLWIYSTSNLASGVPARFSGSGSGTSYSLTISSMEAEDAATYYCHLYHHSPYTFGGGTKLEIK
106	3.36	274	17.7	1.16	348	10.3	2	65.5	7.99	0.8	97	3.4	3.9	141	0.57	0.00041	710000	92E9D4B4 (antibody, V domains shown, Mouse monoclonal antibody; also called mouse anti-human TIGIT monoclonal antibody 92E9D4B4) VH: EVMLVESGGGLVKPGGSLKLSCAASGFTFSFYTMSWVRQTPEKRLEWVATISGGGGDTYYPDNVKGRFTISRDNAKNNLYLQMSSLRSEDTALYYCARSLPVDFWGQGTTLTVSS VL: QIVLTQSPAIMSASLGERVTMTCTASSSVSSTYLHWYQQKPGSSPKFWIYSTSNMASGVPARFSGSGSGTSYSLTISSMEAEDAATYYCHYYHRSPYTFGGGTKLEIK
